Data as given in patent US20200123233A1.
Residue numbers refer to the chain shown, from its start.

Columns and labels:
[1] = substrate: F protein of RSV B-1 (human respiratory syncytial virus, strain B-1) (UniProt P13843); assay: cell-based or functional assay
[2] = substrate: F protein of RSV A-2 (human respiratory syncytial virus, strain A-2) (UniProt P03420); assay: cell-based or functional assay
[3] = substrate: F protein of RSV Long (RSV LONG M-2) (human respiratory syncytial virus, strain Long) (UniProt P12568); assay: cell-based or functional assay
[4] = substrate: F protein of hRSV strain Long (human respiratory syncytial virus, strain Long) (UniProt P12568); assay: cell-based or functional assay
[5] = target: Rabies virus glycoprotein G, ERA strain (attenuated vaccine strain, ATCC VR332) (Rabies virus, ERA strain (genotype 1 lyssavirus)) (UniProt P03524); assay: cell-based or functional assay
[6] = target: Rabies virus glycoprotein G, Challenge Virus Standard (CVS)-11 strain (Rabies virus, strain CVS-11 (genotype 1 Lyssavirus)) (UniProt O92284); assay: cell-based or functional assay
[7] = target: H5 Hemagglutinin (HA, A/Vietnam/1203/2004 (H5N1), Protein Sciences Cat. No. 3006) (influenza A virus A/Vietnam/1203/2004 (H5N1)); assay: SPR (Biacore), H5 coupled on CM5, 1:1 Langmuir model

B1: RSVNC41 (VHH)
VHH: EVQLVESGGGLVQAGGSLSISCAASGGSLSNYVLGWFRQAPGKEREFVAAINWRGDITIGPPNVEGRFTISRDNAKNTGYLQMNSLAPDDTAVYYCGAGTPLNPGAYIYDWSYDYWGRGTQVTVSS
[1]
  RSV neutralization IC50 (nM) (n = 2), B1: 4000 nM
[2]
  RSV neutralization IC50 (nM) (n = 2), A-2: 26 nM
[3]
  RSV neutralization IC50 (nM) (n = 2), Long: 58 nM

B2: LG192A8 (VHH)
VHH: EVQLVESGGGLVQAGGSLRLSCAASERTVIAYTMGWFRRAPGKERDFVAAMNWNGGNTIYADSAKGRFTISRDNAKNTVYLQMNSLKAEDTAVYYCAARPRFWGSYEYDYWGQGTQVTVSS
[4]
  hRSV micro neutralization, strain Long on Hep2 cells: > 3 µM
[5]
  ERA neutralizing antibody titer (RFFIT): EU/mg: < 0.77 EU/mg
  ERA neutralizing antibody titer (RFFIT): EU/ml: < 0.5 EU/ml
  ERA neutralizing antibody titer (RFFIT): EU/µM: < 0.02 EU/µM
  ERA neutralizing antibody titer (RFFIT): nM IC50: > 4840 nM
[6]
  CVS-11 neutralizing antibody titer (RFFIT), IU/mg: < 0.77 IU/mg
  CVS-11 neutralizing antibody titer (RFFIT), IU/ml: < 0.5 IU/ml
  CVS-11 neutralizing antibody titer (RFFIT), IU/µM: < 0.02 IU/µM
  CVS-11 neutralizing antibody titer (RFFIT), nM IC50: > 4840 nM

B3: LG192C6 (VHH)
VHH: EVQLVESGGGLVQAGGSLRLSCEASGRTERYQAMGWFRQAPGKEREFVAVVTRWSGARTVYADSVKGRFTISRDNAENTVYLQMNSLKPEDTAVYTCAADSTNRNRGAIYYTWAYDYWGQGTQVTVSS
[4]
  hRSV micro neutralization, strain Long on Hep2 cells: > 3 µM

B4: LG192H2 (VHH)
VHH: B3 VHH with E29F, R30S, Y31N, Q32Y, A57G, R106S, I109W, Y117H
[4]
  hRSV micro neutralization, strain Long on Hep2 cells: > 3 µM

B5: LG192C10 (VHH)
VHH: EVQLVESGGGLVQAGGSLRLSCAASEGYFRNYMVGWFRQAPGGERMFVAAISDTAYYADSVKGRFTISRDNAKNTVYLPMNSLKPEDTAVYYCAAAPKSWGTWPLVADTRSYHFWGQGTQVTVSS
[4]
  hRSV micro neutralization, strain Long on Hep2 cells: > 3 µM

B6: LG202C8 (VHH)
VHH: EVQLVESGGGLVQPGGSLRLSCTGSGFTFSSYWMDWVRQTPGKDLEYVSGISPSGSNTDYADSVKGRFTISRDNAKNTLYLQMNSLKPEDTALYYCRRSLTLTDSPDLRSQGTQVTVSS
[7]
  Kd: 0.01 µM

B7: 203B12 (VHH)
VHH: EVQLVESGGGLVQPGGSLRLSCAASGFTFSSYAMGWVRRAPGEGLEWVSSISSGGALPTYADSVKGRFTISRDNVKNTLYLQMNSLKPEDTAVYSCEKYAGSMWTSERDAWGQGTQVTVSS
[7]
  Kd: 0.03 µM

B8: 203H9 (VHH)
VHH: B6 VHH with S56G, K87Q
[7]
  Kd: 0.0155 µM
